# Assay results published in patent US20250250357A1 (NANJING ZAIMING PHARMACEUTICAL, published 2025).
# Substitutions are numbered along the chain they refer to.
# T1: monkey MSLN full-length protein (NCBI: XP_028696439.1) expressed on HEK293T-monkey MSLN cells (monkey)
# T1 construct: Whole encoded precursor
# T1 chain: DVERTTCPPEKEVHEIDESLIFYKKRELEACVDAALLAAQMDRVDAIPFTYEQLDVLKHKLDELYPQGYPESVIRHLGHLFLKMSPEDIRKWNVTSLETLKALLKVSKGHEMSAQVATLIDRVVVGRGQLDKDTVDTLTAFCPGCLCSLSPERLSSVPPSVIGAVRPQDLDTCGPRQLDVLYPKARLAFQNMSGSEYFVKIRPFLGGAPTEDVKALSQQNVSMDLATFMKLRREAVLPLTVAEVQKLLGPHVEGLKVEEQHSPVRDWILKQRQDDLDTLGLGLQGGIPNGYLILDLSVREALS
# T2: monkey MSLN on HEK293T-monkey MSLN recombinant cells (monkey)
# T2 construct: Full-length precursor as transfected; processing on the cell is not described; also called HEK293-monkey MSLN
# T2 chain: T1 chain
# B1: S009-F7.44.20 (antibody, human IgG1, kappa, V domains shown)
# VH: EVQLQQSGPELVKPGASVKIPCKASGYTFTDYNMDWVKQSHGKSLEWIGDINPSTGGTIYNQKFNGKATLTEDKSASTVYMEFRSLTSDDTAVYYCARRRIGTGYFDVWGTGTTVTVSS
# VL: QIVLTQSPALMSASPGEKVTLTCSASSSVISSYLSWYQQKPGSSPKLLIYRTSNLASGVPARFSGSGSGTSYSLTISSMEAEDAASYFCHQWSSFPYTFGGGTKLEIKR
# notes: human-murine chimeric antibody, human IgG1/kappa constant regions
# B2: S009-F7.61.21 (antibody, human IgG1, kappa, V domains shown)
# VH: DVQLQQSGPELVEPGASVRIPCKAAGHTFTDYNVDWVKQSHGQSLEWIGDVNPNTDGAIYNQKFEGKATLTVDTSSSTAYMELRSLTSEDTAVYFCARRRLGQGGFDSWGQGTTLTVSS
# VL: B1 VL with I2V, L10I, S24G, V29L, S32K, S35Y, L48W, R51S, F95Y, L105V
# notes: as for B1
# B3: S009-F7.48.1 (antibody, human IgG1, kappa, V domains shown)
# VH: QVQLQQPGTELVKPGASVKLSCKASGYTFTSYWMHWVKQRPGQGLEWIGNINPSNGGTNNNENFKSKATLTVDTSSSTAYMQLSSLTSEDSAVYYCVRNGYHGYWYFDVWGTGTTVTVSS
# VL: DIVMTQSQKFMSTSVGDRVSVTCKASQNVGTNVAWYQQQPGQSPKALIYSASYRYSGVPDRFTGSVSGTDFTLTISNVQSEDLAEYFCQQYNSYPLTFGGGTKLEIKR
# notes: as for B1
# B4: S009-F7.65.13 (antibody, human IgG1, kappa, V domains shown)
# VH: EVQLQQSGPELVKPGTSVKILCKASGDTFTAYNMDWVKQRHGQSLEWIGDINPNTDSTIYNQKFEGKAILTVDKSSSTAYMELRSLTSEDTAVYYCARRKLGRGYFDYWGQGTTLTVSS
# VL: QIVLTQSPAIMSASPGEKVTMTCSVNLSVRYIYWYQQKPGSSPRLLIHDTSNLASGVPVRFSGSGSGTSYSLTISRMEAEDAATYYCQQWSSFPYTFGGGTKLEIKR
# notes: as for B1
# B5: S009-F7.53.2 (antibody, human IgG1, kappa, V domains shown)
# VH: EVQLQQSGPELVKPGASVKIPCKTSGYTFTDYNMDWVKQSHGKSLEWIGDINPNTDGAIYNQKFQNKATLTVDKSSSTAYMELRSLTSEDTAVYYCTRRKLGRKFFDYWGQGTTLTVSS
# VL: QIVLTQSPAIMSASPGEQVTMTCSASSSVGYMNWYQQKPGSSPRLLIYDTSNLASGVPVHFSGSGSGTSYSLTISRMEAAFAATYYCQQWYVYPYTFGGGTKLEIKR
# notes: as for B1
# B6: S009-F7.69.8 (antibody, human IgG1, kappa, V domains shown)
# VH: EVHLQQSGPELVKPGASVRIPCKASGYTFTDYNMDWVKQSHGKSLEWIGDINPDNGGTIYTQKFKGKATLTVDKSSSTAYMELRSLTSEDTAVYYCARRLHYYGSSGLDYWGQGTTLTVSS
# VL: DIQMTQSPASLSAYVGETVTITCRASGNIHNYLAWYQQKQGKSPQLLVYNAKTLADGVPSRFSGSGSGTQYSLKINSLQPEDFGSYYCQHFWSTVWTFGGGTKLEIKR
# notes: as for B1
# B7: S009-F7.67.12 (antibody, human IgG1, kappa, V domains shown)
# VH: QVQLQQPGTELVKPGASVRLSCRASGYSFSSYWMHWVKQRPGQGLEWLGNINPTTGDINYNEKFRNRATLAVDKSSTTAYLQLTSLTSEDSAVYFCVRHDGFLWGQGTTLTVSS
# VL: DIQMTQSPASLSASVGETVTITCRASENIYSYLAWYQQKQGKSPQLLVYYAKTLAEGVSSRFSGSGSGTQFSLKINSLQPEDFGTYYCQHQFGTPRTFGGGTKLEIRR
# notes: as for B1
# B8: S009-F7.66.12 (antibody, human IgG1, kappa, V domains shown)
# VH: QIPLQQSGPELVKPGASVRISCKASDYAFSSSWMNWVKQRPEKGLEWIGRIFVESGNTHYNDKFNGKATLTADKSSRTAYIQLSSLTSEDSAVYFCTRENIFYHGHSSWFAYWGQGTLVTVSA
# VL: DIVLTQSPASLVVSLGQRATISCRAGESVDDFGISYVHWYQQKPGQPPKLLIYRAANLESGIPARFSGSGSRTDFTLTINPVETDDVAIYYCQQNNKDPFTFGSGTKLEIKR
# notes: as for B1
# B9: S009-F7.41.18 (antibody, human IgG1, kappa, V domains shown)
# VH: QVQLQQPGTELVKPGASVKLSCKASDYTFTSYWMHWVKQRPGQGLEWIGSINPSNGDTYYNEKFKNKATLTVDKSSSTAYMQLSSLTSDDSAVYYCARGWYFDVWGTGTTVTVSS
# VL: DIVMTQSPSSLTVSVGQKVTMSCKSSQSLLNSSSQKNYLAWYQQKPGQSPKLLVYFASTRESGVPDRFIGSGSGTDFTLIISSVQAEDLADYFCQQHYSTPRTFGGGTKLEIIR
# notes: as for B1
# B10: F7.44.20-H1 (scFv, not shown: small tags and cut ends)
# scFv: EVQLVQSGAEVKKPGASVKVSCKASGYTFTDYNMDWVRQAPGQGLEWMGDINPSTGGTIYNQKFNGRVTMTEDKSTSTVYMELSSLRSEDTAVYYCARRRIGTGYFDVWGQGTTVTVSSGGGGSGGGGSGGGGSEIVLTQSPDFQSVTPKEKVTITCSASSSVISSYLSWYQQKPDQSPKLLIYRTSNLASGVPSRFSGSGSGTDFTLTINSLEAEDAATYYCHQWSSFPYTFGGGTKVEIK
# notes: also called S009-F7.44.20 humanized antibody VH1 + VL1
# B11: F7.44.20-H6 (scFv, not shown: small tags and cut ends)
# scFv: B10 scFv with N65Q, F206Y
# notes: also called S009-F7.44.20 humanized antibody VH1a + VL2
# B12: F7.44.20-H2 (scFv, not shown: small tags and cut ends)
# scFv: B10 scFv with F206Y
# notes: also called S009-F7.44.20 humanized antibody VH1 + VL2
# B13: F7.44.20-H13 (scFv, not shown: small tags and cut ends)
# scFv: B10 scFv with N65S, T76A
# notes: also called S009-F7.44.20 humanized antibody VH2a + VL1
# B14: F7.44.20-H14 (scFv, not shown: small tags and cut ends)
# scFv: B10 scFv with N65S, T76A, F206Y
# notes: also called S009-F7.44.20 humanized antibody VH2a + VL2
# B15: F7.44.20-H10 (scFv, not shown: small tags and cut ends)
# scFv: B10 scFv with T76A, F206Y
# notes: also called S009-F7.44.20 humanized antibody VH2 + VL2
# B16: S009-F8-9.16 (antibody, human IgG1, kappa, V domains shown)
# VH: EVHLQQSGPVLVKPGASVKMSCKASGYTFTDYFMNWVKQSHGKSLEWIGVINPHNGYVNYNQKFQGRATLTVDKSSSTVYMELNSLTSEDSAVYHCARSAESAWFAYWGQRTLVTVSA
# VL: DVLMTQTPLSLPVSLGDQVSISCRSSQSIVHVKGNTYLEWYLQKPGQSPELLIYKVSNRFSGVPDRFSGGGSGTDFTLKISRVEPEDLGVYYCFQGSHLPYTFGGGTKLEIKR
# notes: as for B1
# Biological target: T3, human MSLN-R3 protein (Met487-Ser606 of NCBI AAH09272.1) expressed on HEK293T-hMSLN-R3 cells (human, UniProt Q13421 487-606)
# T3 construct: also called Region3
# Assay: FACS on HEK293T-hMSLN-R3 cells
# T3 sequence (Q13421 495-614): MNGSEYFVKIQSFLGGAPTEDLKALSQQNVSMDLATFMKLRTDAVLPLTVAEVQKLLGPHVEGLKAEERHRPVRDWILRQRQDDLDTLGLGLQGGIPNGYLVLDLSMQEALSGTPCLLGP
EC50 [nM],Maximum mean fluorescence intensity,Binder
0.04,7470,B1
0.48,6250,B2
1.87,5150,B3
0.91,6490,B4
1.3,6480,B5
0.14,6590,B6
0.14,6930,B7
0.38,5900,B8
0.35,7460,B9

# Biological target: T4, human MSLN protein endogenously expressed on OVCAR3 tumor cells (human, UniProt Q13421 296-598)
# T4 construct: whole, on cells; Endogenous target on OVCAR3 cells; kept apart from the recombinant full-length construct; also called mesothelin
# Assay: FACS on OVCAR3 cells
# T4 sequence (Q13421 other isoform, or with tags, fused parts or gaps): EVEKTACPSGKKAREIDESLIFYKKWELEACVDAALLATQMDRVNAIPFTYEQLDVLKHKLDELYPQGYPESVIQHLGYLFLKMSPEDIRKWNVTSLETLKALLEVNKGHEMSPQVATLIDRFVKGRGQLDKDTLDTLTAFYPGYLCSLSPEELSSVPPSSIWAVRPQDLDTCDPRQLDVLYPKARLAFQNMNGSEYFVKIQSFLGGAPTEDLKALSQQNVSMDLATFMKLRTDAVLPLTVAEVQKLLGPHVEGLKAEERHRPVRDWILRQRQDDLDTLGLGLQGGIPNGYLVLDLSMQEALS
EC50 [nM],Maximum mean fluorescence intensity,Binder
0.05,25700,B1
1.08,23700,B2
~4,24000,B3
0.87,26500,B4
1.09,23600,B5
0.36,16600,B6
0.37,29100,B7
0.87,21900,B8
0.22,25900,B9

# Biological target: T5, human MSLN on OVCAR3 tumor cells (human, UniProt Q13421 296-598)
# T5 construct: whole, on cells; also called human MSLN protein
# Assay: FACS, OVCAR3 cells
# T5 sequence (Q13421 other isoform, or with tags, fused parts or gaps): as above
EC50 [nM],Maximum_MFI [MFI],Binder
0.4,1820,B10
1.6,1830,B11
0.99,1820,B12
1.33,2150,B13
1.83,2140,B14
1.21,2320,B15

# Biological target: T6, human MSLN-R3 protein expressed on HEK293T cells (HEK293T-hMSLN-R3) (human, UniProt Q13421 487-606)
# T6 construct: C-terminal limit uncertain
# Assay: FACS on HEK293T-hMSLN-R3 cells
# T6 sequence (Q13421 495-614): as the sequence (Q13421 495-614) above
EC50 [nM],Maximum mean fluorescence intensity,Binder
0.53,128000,B16

# Biological target: T1, monkey MSLN full-length protein (NCBI: …)
# Assay: FACS on HEK293T-monkey MSLN cells;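 further: flow cytometry binding of chimeric antibodies to the cells, with a 2 h incubation on ice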
EC50 [nM],Maximum mean fluorescence intensity,binding result,Binder
0.04,45600,,B1
0.75,39800,,B2
2.88,43200,,B3
0.87,50200,,B4
1.13,47400,,B5
12.5,9230,,B6
0.36,59300,,B7
,60,no binding,B8
0.54,64200,,B9

# Biological target: T2, monkey MSLN on HEK293T-monkey MSLN …
# Assay: FACS, HEK293T-monkey MSLN cells
EC50 [nM],Maximum_MFI [MFI],Binder
6.05,6550,B10
15,6020,B11
5.5,6950,B12
2.35,9320,B13
7.37,8130,B14
4.25,9020,B15

# Biological target: T7, human MSLN protein endogenously expressed on OVCAR3 tumor cells (human, UniProt Q13421 296-598)
# T7 construct: whole, on cells; endogenous expression on a tumor cell line; also called human mesothelin
# Assay: FACS on OVCAR3 cells
# T7 sequence (Q13421 other isoform, or with tags, fused parts or gaps): as the sequence (Q13421 other isoform, or with tags, fused parts or gaps) above
EC50 [nM],Maximum mean fluorescence intensity,Binder
0.86,5380,B16

# Biological target: T8, human MSLN-R3 on HEK293T-hMSLN-R3 recombinant cells (human, UniProt Q13421 487-606)
# T8 construct: the C-terminal limit is uncertain; also called human MSLN-R3 membrane protein
# Assay: FACS, HEK293T-hMSLN-R3 cells
# T8 sequence (Q13421 495-614): as the sequence (Q13421 495-614) above
EC50 [nM],Maximum_MFI [MFI],Binder
1.72,1750,B10
3.44,1540,B11
1.71,1690,B12
0.63,1600,B13
1.52,1440,B14
0.88,1470,B15
